One experiment has as its target T1, At1g12140 (Arabidopsis thaliana, UniProt A8MRX0).
T1 construct: made in house; host or cells: E. coli
T1 sequence (A8MRX0 1-459): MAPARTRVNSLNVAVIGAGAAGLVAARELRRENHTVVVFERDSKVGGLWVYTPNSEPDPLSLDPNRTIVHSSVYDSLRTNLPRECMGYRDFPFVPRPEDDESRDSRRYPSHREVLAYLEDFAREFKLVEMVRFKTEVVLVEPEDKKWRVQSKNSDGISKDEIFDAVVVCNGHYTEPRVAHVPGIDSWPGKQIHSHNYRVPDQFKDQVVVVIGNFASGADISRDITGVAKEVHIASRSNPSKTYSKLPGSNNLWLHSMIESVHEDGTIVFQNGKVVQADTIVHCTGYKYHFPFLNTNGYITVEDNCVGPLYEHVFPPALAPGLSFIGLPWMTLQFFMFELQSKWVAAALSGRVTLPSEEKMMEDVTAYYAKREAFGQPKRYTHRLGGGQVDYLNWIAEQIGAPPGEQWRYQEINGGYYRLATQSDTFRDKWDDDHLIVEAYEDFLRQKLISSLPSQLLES
The experiment in a line: Heterologous expression of At1g12140 in E. coli, desulfo-glucosinolate substrate mix. Particulars: desulfo-glucosinolates from Arabidopsis Col-0 seeds as substrate mix. It counts as biochemical. From the text:
(§1) FIG. 15—Heterologous expression of At1g12140 in E. coli using desulfo-glucosinolates from glucosinolates from Arabidopsis Col-0 seeds as substrate mix.

The nature of experiment [1]: Activity of FMOs of the invention in E. coli or in seeds using a variety of substrates. Particulars: for S-oxygenation activity: desulfo and intact glucosinolates; for substrate specificity: methylthio glucosinolates in Arabidopsis. It counts as biochemical, Arabidopsis thaliana.
Excerpt: FIG. 11—Heterologous expression of At1g62560 in E. coli using 4MTB as substrate, with an empty vector as control.
FIG. 13—Heterologous expression of At1g62540 in E. coli using 4MTB as substrate, with an empty vector as control.
as §1
FIG. 17—Heterologous expression of At1g62570 in E. coli using desulfo-glucosinolates from glucosinolates from Arabidopsis Col-0 seeds as substrate mix, with an empty vector as control.
FIGS. 11-18 show the activity of At1g62560, At1g65860, At1g62540, At1g12140 and At1g62570 in E. coli or in seeds using a variety of substrates.

Experiment [2] concerns Arabidopsis thaliana Col-0. In words: 4MTB and 4MSB levels in At1g65860 and At1g62560 overexpression lines. It counts as in vivo. The settings on record: expressed constitutively. On the procedure:
FIG. 5—4-methylthiobutyl glucosinolate levels in rosette leaves from 24 day old wild type columbia and transgenic At1g65860 and At1g62560 overexpression lines. Quantities are given in nmol/mg fresh weight ±one standard deviation and are the mean of extractions from four individual plants. Two independent lines were analysed for each construct. The lines H and AT for 35S overexpression of At1g65860 and line 9 and 11 for 35S overexpression of At1g62560.
FIG. 12—4-6 fold increase in 4MSB levels in seeds in overexpressors of At1g62560 and At1g65860.
In another separate experiment a mix of heterozygous and homozygous 35S:At1g62560 and 35S:At1g65860 as well as Arabidopsis thaliana, ecotype Columbia, were used.
Three-four leaves (20-80 mg) were harvested from each plant and the material freeze-dried O/N. After adding one ball bearing to each tube, the tissue was homogenized by shaking at a frequency of 30 s^−1 for one min on a Retsch Mixer Mill 303 (Retsch, Haan, Germany). 250 μl of 85% methanol was added to each tube and the entire box vortexed for 30 s. For glucosinolate extraction from seeds (10-20 mg) 250 μl of 85% methanol was added before homogenization. The samples were mixed for two minutes by vortexing. […]

Here are results for three molecules from patent US20100011462A1, “FLAVIN MONOOXYGENASES AND TRANSCRIPTION FACTORS INVOLVED IN GLUCOSINOLATE BIOSYNTHESIS” (University of Copenhagen, priority 2006, published 2010).

On to `CSCCCCCCCCC(=NOS(=O)(=O)O)S[C@@H]1O[C@H](CO)[C@@H](O)[C@H](O)[C@H]1O` [8MTO, 8-methylthiooctyl glucosinolate], for which the S-oxygenation activity result at At1g12140 was “high activity”.

B1: At1g65860: flavin-containing monooxygenase (FMO) from A. thaliana, SEQ ID NO 4; also its overexpression in planta (protein, listed as Arabidopsis thaliana)
chain: MAPTQNTICSKHVAVIGAGAAGLVTARELRREGHTVVVFDREKQVGGLWNYSSKADSDPLSLDTTRTIVHTSIYESLRTNLPRECMGFTDFPFVPRIHDISRDSRRYPSHREVLAYLQDFAREFKIEEMVRFETEVVCVEPVNGKWSVRSKNSVGFAAHEIFDAVVVCSGHFTEPNVAHIPGIKSWPGKQIHSHNYRVPGPFNNEVVVVIGNYASGADISRDIAKVAKEVHIASRASESDTYQKLPVPQNNLWVHSEIDFAHQDGSILFKNGKVVYADTIVHCTGYKYYFPFLETNGYININENRVEPLYKHVFLPALAPSLSFIGLPGMAIQFVMFEIQSKWVAAVLSGRVILPSQDKMMEDIIEWYATLDVLGIPKRHTHKLGKISCEYLNWIAEECHCSPVENWRIQEVERGFQRMVSHPEIYRDEWDDDDLMEEAYKDFARKKLISSHPSYFLES
On to B1, for which, in experiment [1], the S-oxygenation activity entry is recorded as “S-oxygenation activity” and the substrate specificity entry is on record as “broad specificity towards all methylthio (MT) glucosinolates”. In addition, the 4-methylthiobutyl glucosinolate levels entry in experiment [2] is “reduced”.

B2: At1g62560: flavin-containing monooxygenase (FMO) from A. thaliana, SEQ ID NO 2; also its overexpression in planta (protein, listed as Arabidopsis thaliana)
chain: MAPAQNQITSKHVAVIGAGPAGLITSRELRREGHSVVVFEREKQVGGLWVYTPKSDSDPLSLDPTRSKVHSSIYESLRTNVPRESMGVRDFPFLPRFDDESRDARRYPNHREVLAYIQDFAREFKIEEMIRFETEVVRVEPVDNGNWRVQSKNSGGFLEDEIYDAVVVCNGHYTEPNIAHIPGIKSWPGKQIHSHNYRVPDPFENEVVVVIGNFASGADISRDIAKVAKEVHIASRAREPHTYEKISVPQNNLWMHSEIDTTHEDGSIVFKNGKVIFADSIVYCTGYKYNFPFLETNGYLRIDEKRVEPLYKHVFPPALAPGLAFVGLPAMGIVFVMFEIQSKWVAAVLSGRVTLPSTDKMMEDINAWYASLDALGIPKRHTHTIGRIQSEYLNWVAKESGCELVERWRGQEVDGGYLRLVAHPETYRDEWDDDELIEEAYNDFSRKKLISVDPSYYLENGR
For B2, in experiment [1], the S-oxygenation activity result was “S-oxygenation activity” and the substrate specificity entry was “broad specificity towards all methylthio (MT) glucosinolates”. In addition, the 4-methylthiobutyl glucosinolate levels result in experiment [2] is on record as “reduced”.
